Results on 48 molecules are retold here after patent US20190264194A1 (published 2019).

Assay [1] deals with T1, streptavidin (UniProt P22629 37-163, limits assumed).
T1 construct: Used as phycoerythrin conjugate or on coated beads; also called SA; streptavidin-phycoerythrin
Put plainly: selection from the X4CX3CX4 library displayed in loop 2 of OmpX.

Assay [2] addresses T2, human C-reactive protein (human, UniProt P02741 19-224).
T2 construct: Biotinylated or labelled with Alexa Fluor 488; also called CRP; C-RP
T2 sequence (looked up): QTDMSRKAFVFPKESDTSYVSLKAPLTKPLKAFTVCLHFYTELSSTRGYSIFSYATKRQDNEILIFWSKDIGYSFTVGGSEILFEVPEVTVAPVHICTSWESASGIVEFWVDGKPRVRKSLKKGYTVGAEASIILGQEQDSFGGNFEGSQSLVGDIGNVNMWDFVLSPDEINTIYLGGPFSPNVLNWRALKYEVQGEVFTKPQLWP
Briefly: selection from the E. coli display library. On the procedure: The library was first depleted of streptavidin binding peptides by incubation with streptavidin coated microbeads, e.g., from Qiagen, Inc. (Valencia, Calif.). Then the library was incubated with biotinylated human C-reactive protein at 10 nM final concentration, and two rounds of magnetic selection were used to enrich CRP binding peptides. […] Equilibrium binding affinities were measured in the whole cell format, by determining cell fluorescence at various concentrations of target CRP. See e.g. FIG. 17.

The target in assay [3] is T2, human C-reactive protein. Put plainly: apparent whole-cell KD, flow cytometry with CRP-Alexa Fluor 488. How it is done: (§1) To obtain equilibrium binding curves, cells were labeled over a range of concentrations, e.g., about 0.1 to about 200 nM, of fluorescently conjugated target proteins (streptavidin-phycoerythrin or CRP-Alexa Fluor® 488) and analyzed by flow cytometry, as above. The corresponding mean fluorescence versus concentration data were fit to a monovalent binding isotherm to obtain the apparent KD. Dissociation rates of streptavidin-binding clones were measured in the presence of about 1 to about 2 μM biotin. Cells were labeled with 50 nM streptavidin-phycoerythrin for 30 minutes at room temperature. The cells were then pelleted, resuspended in PBS with biotin, and immediately analyzed by flow cytometry. Fluorescence data were collected continuously for about five minutes. The dissociation rate constants were then determined as described previously. See Daugherty, P. S., et al. (1998) Protein Eng. 11(9):825-832, which is herein incorporated by reference.

The target of assay [4] is T2, human C-reactive protein. Briefly: clones isolated by MACS and FACS from the E. coli OmpA loop 1 15-mer library.
For assay [5], the target named is T1, streptavidin. Put plainly: whole-cell dissociation by flow cytometry, 1-2 uM biotin as competitor. On the procedure:
The apparent binding affinities of a subset of the selected peptides were determined using flow cytometric analysis. […] See Daugherty, P. S., et al. (1998) Protein Eng. 11(9):825-832, which is herein incorporated by reference. […] See Daugherty, P. S., et al. (1998) Protein Eng. 11(9):825-832; and Feldhaus, M. J., et al. (2003) Nat. Biotechnol. 21(2): 163-170, which are herein incorporated by reference. […] Apparent dissociation rate constants (kdiss) were determined for streptavidin, using about 1 to about 2 μM biotin as a competitor to prevent re-binding.
as §1

Assay [6] deals with T1, streptavidin. Put plainly: selection from the XCCX4CX7CX library displayed in loop 2 of OmpX.
In assay [7] the target is T1, streptavidin. Briefly: apparent whole-cell KD, flow cytometry with streptavidin-phycoerythrin. On the procedure: as §1
On the technique in general: Flow cytometry measures light scatter and fluorescence of single cells or particles in a stream.

Assay [8] concerns the target T3, human serum albumin (human, UniProt P02768 25-609).
T3 construct: Biotinylated or FITC-conjugated; also called HSA
Briefly: clones isolated by MACS and FACS from the E. coli OmpA loop 1 15-mer library.

Turning to PTLICMNVCFYDQ [SEQ ID NO 281], the binding result in assay [1] is on record as “binds”.

On to SKWICQNVCYPGL [SEQ ID NO 279], for which the binding result in assay [1] is on record as “binds”.

In the case of PYLNARGFSVTREQI [SEQ ID NO 252], in assay [2], the binding result is “binds”.

TRLICANLCWYAE [SEQ ID NO 284]: in assay [1], the binding result is reported as “binds”.

Take FPIYNQRGFITLASP (Insert only) [CRP-2]: in assay [3], the Kd is 3 nM.

As to SHWFCVNVCFRIQ [SEQ ID NO 282], in assay [1], the binding result is “binds”.

VRTWNDRGFQQSVDR (Insert only) [CRP-5]: the binding result in assay [4] is recorded as “binds”.

As to KALVCQNVCYTMS [SEQ ID NO 278], the binding result in assay [1] is “binds”.

Usually koff stands for the rate constant with which the complex falls apart. Low values mean slow dissociation, high ones fast dissociation. On to IMMECFYVCTIANTQ (Insert only) [SA-8], for which the koff in assay [5] was around 0.01 s⁻¹.

Turning to WTKLKNSRGFELQLD (Insert only) [CRP-8], in assay [4], the binding result is listed as “binds”.

For LMNWRGFMVPRESPK (Insert only) [CRP-7], the binding result in assay [4] is on record as “binds”.

As to YPPRFQYYRFYYRGP (Insert only) [CRP-10], the Kd in assay [3] is 5 nM.

Take LCCHPQVCASAGYYACY [SEQ ID NO 273]: the binding result in assay [6] is recorded as “binds”.

Consider ICCHPQWCGLTVWWPCK [SEQ ID NO 275], for which, in assay [6], the binding result was “binds”.

For the molecule TDFLSYYRVYRTPLQ [SEQ ID NO 248], in assay [2], the binding result is “binds”.

For the molecule LMNWRGFMVPRESPK [SEQ ID NO 251], the binding result in assay [2] is on record as “binds”.

Take YWVCMNVCMYYTARQ (Insert only) [SA-5]: the koff in assay [5] is around 0.001 s⁻¹.

On to RLEICQNVCYYLGTL (Insert only; also called SA-1 pep) [SA-1], for which the Kd in assay [7] amounted to 10 nM. In assay [5], the koff is around 0.001 s⁻¹.

As to NPFCSWYRWRNWCTK (Insert only) [HSA-1], in assay [8], the binding result is on record as “binds”.

For the molecule MIFNSRGFLSLMSSG (Insert only) [CRP-6], the Kd in assay [3] stood at 8 nM.

Consider HMRWNTRGFLYPAMS (Insert only) [CRP-3], for which the binding result in assay [4] was “binds”.

Consider YCCHPQVCFLGHRAACP [SEQ ID NO 267], for which the binding result in assay [6] is reported as “binds”.

In assay [5], SITICWYTCMVQKTA (Insert only) [SA-10] gave a koff of around 0.01 s⁻¹.

With QSLVCQNVCWMRE [SEQ ID NO 276], the binding result in assay [1] is “binds”.

On to WCCHPQVCHRAMVRNCI [SEQ ID NO 271], for which the binding result in assay [6] is listed as “binds”.

Turning to NNYSAWLRCLLRAYS (Insert only) [HSA-4], the binding result in assay [8] is “binds”.

As for TTCKYYLSCRWRKDL (Insert only) [CRP-13], the binding result in assay [4] is “binds”.

Regarding ACCHPQVCVMALPYHCL [SEQ ID NO 272], in assay [6], the binding result is on record as “binds”.

In the case of WTKLKNSRGFELQLD [SEQ ID NO 254], the binding result in assay [2] is recorded as “binds”.

CMIICQNVCYRKC [SEQ ID NO 277]: the binding result in assay [1] is on record as “binds”.

With TTCKYYLSCRWRKDL [SEQ ID NO 246], the binding result in assay [2] is listed as “binds”.

SYISTWLNFLFCGQS (Insert only) [HSA-3]: in assay [8], the binding result was “binds”.

With RYIMNHRGFYIFVPR [SEQ ID NO 250], the binding result in assay [2] was “binds”.

Take WCCHPQVCSLSLAYKCQ [SEQ ID NO 268]: the binding result in assay [6] is reported as “binds”.

In the case of RYIMNHRGFYIFVPR (Insert only) [CRP-4], the binding result in assay [4] is “binds”.

Consider TYSWCANVCMHYS [SEQ ID NO 283], for which the binding result in assay [1] is reported as “binds”.

For the molecule TDFLSYYRVYRTPLQ (Insert only) [CRP-11], in assay [4], the binding result was “binds”.

As for GTLVCMNFCYLSK [SEQ ID NO 280], in assay [1], the binding result is reported as “binds”.

LPVWCVMHVCLTSSR (Insert only) [SA-6] registered a koff in assay [5] of around 0.001 s⁻¹.

For RHLYCWTWRWCHFKD (Insert only) [HSA-2], the binding result in assay [8] is on record as “binds”.

As for ICCHPQVCSGLNRFRCG [SEQ ID NO 270], the binding result in assay [6] was “binds”.

In turn, VTSLCMNVCYSLTTY (Insert only) [SA-4] displayed a koff in assay [5] of around 0.001 s⁻¹.

On to PYLNARGFSVTREQI (Insert only) [CRP-9], for which the binding result in assay [4] is “binds”.

LCCHPQNCVSFRHVECR [SEQ ID NO 274]: the binding result in assay [6] is recorded as “binds”.

Consider TFMPSYYRSWGPPPT (Insert only) [CRP-12], for which the binding result in assay [4] is “binds”.

ADTICWYVCTISVHA (Insert only) [SA-11]: the koff in assay [5] was around 0.01 s⁻¹.

Take ICCHPQVCAWNRVFLCK [SEQ ID NO 269]: the binding result in assay [6] is reported as “binds”.

As for TFMPSYYRSWGPPPT [SEQ ID NO 249], the binding result in assay [2] is given as “binds”.
